{"source": "paper PMC11872457", "about": "(2025)", "binders": {"B1": {"name": "CoV-YL8 TCR (TCR)", "alpha TRAV1-1 TRAJ4 CDR3": "CAVRGISGGYNKLIF", "beta TRBV19 TRBJ1-6 CDR3": "CASSIEGSYNSPLHF"}}, "molecular_target": "T1, SARS-CoV-2 replicase polyprotein 1ab (CoV-YL8; identical in HKU1 and NL63) peptide on HLA-B*35:03 (human)", "T1 peptide": "YPDPSRIL", "assay": "cytokine release"}
{"binder": "B1", "values": [{"measurement": "binding result", "result": "recognises"}]}
